Laboratory results reported in paper PMC7862292, “Crystal structures of non-oxidative decarboxylases reveal a new mechanism of action with a catalytic dyad and structural twists” (Scientific Reports, 2021).
Each block holds one molecule with its values, some of them ahead of it.

Legend:
AGDC1 = target: T1, AGDC1 (Blastobotrys adeninivorans, UniProt A0A060TAG5); test: UV decrease of gallic acid at […] nm; assay type: biochemical; details: read-out: % inhibition at 0.5 mM
T1 construct: synthetic gene in pET15b, E. coli C41, N-terminal His6 tag removed by thrombin; trimer with central K+ and peripheral Co2+ sites
T1 sequence (A0A060TAG5 entry or part of it): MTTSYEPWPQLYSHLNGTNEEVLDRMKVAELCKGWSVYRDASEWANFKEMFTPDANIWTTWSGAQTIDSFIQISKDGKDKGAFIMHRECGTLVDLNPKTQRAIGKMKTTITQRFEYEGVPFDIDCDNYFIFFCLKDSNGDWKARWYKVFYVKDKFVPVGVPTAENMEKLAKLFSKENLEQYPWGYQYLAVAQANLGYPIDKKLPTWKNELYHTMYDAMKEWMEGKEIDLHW

PPP2 [1] = target: T2, PPP2 (Madurella mycetomatis, UniProt A0A175WC91); test: UV decrease of substrate at […] nm; assay type: biochemical; details: 0.5 mM substrate, 50 mM KPi pH 6.5, RT, 160 ug/ml enzyme; decarboxylation to pyrogallol, weaker than protocatechuic acid
T2 construct: gene MMYC01_201259; synthetic gene in pET15b, E. coli C41, N-terminal His6 tag removed by thrombin; trimer with central K+; no cobalt site

PPP2 [2] = target: T2, PPP2; test: UV decrease of substrate at […] nm; assay type: biochemical; details: 0.5 mM substrate, 50 mM KPi pH 6.5, RT, 160 ug/ml enzyme; decarboxylation to catechol
[3] = target: AGDC1 E88A mutant (Arxula adenivorans); test: SEC; Superdex 200 10/300; with (25 mM Tris 7.5, 50 mM KCl, 100 mM NaCl) or without (25 mM Tris 7.5, 100 mM NaCl) potassium; Bio-rad Gel Filtration Standard; all proteins eluted as a single peak
[4] = target: Pea Pathogenity Protein (PPP2) from Madurella mycetomatis (Madurella mycetomatis); test: crystal structure; hanging drop vapor diffusion, protein 10 mg/ml in 20 mM Tris pH 7.5, with or without 5 mM nitrocatechol alone or with 0.5 mM CoCl2; AGDC1 in PEG 3350, 0.2 M potassium salt, MES; PPP2 in PEG 3350, 0.2 M calcium chloride, MES pH 5.5
[5] = target: Pea Pathogenity Protein (PPP2) from Madurella mycetomatis (Madurella mycetomatis); test: SEC; Superdex 200 10/300; with (25 mM Tris 7.5, 50 mM KCl, 100 mM NaCl) or without (25 mM Tris 7.5, 100 mM NaCl) potassium; Bio-rad Gel Filtration Standard; all proteins eluted as a single peak
[6] = target: gallic acid decarboxylase AGDC1 from Arxula adenivorans (Arxula adenivorans); test: crystal structure; hanging drop vapor diffusion, protein 10 mg/ml in 20 mM Tris pH 7.5, with or without 5 mM nitrocatechol alone or with 0.5 mM CoCl2; AGDC1 in PEG 3350, 0.2 M potassium salt, MES; PPP2 in PEG 3350, 0.2 M calcium chloride, MES pH 5.5
[7] = target: gallic acid decarboxylase AGDC1 from Arxula adenivorans (Arxula adenivorans); test: SEC; Superdex 200 10/300; with (25 mM Tris 7.5, 50 mM KCl, 100 mM NaCl) or without (25 mM Tris 7.5, 100 mM NaCl) potassium; Bio-rad Gel Filtration Standard; all proteins eluted as a single peak

- inhibition at 500 µM (AGDC1): 98%
Molecule: O=[N+]([O-])c1ccc(O)c(O)c1 [4-nitrocatechol]

Molecule: O=C(O)c1cc(O)c(O)c(O)c1 [gallic acid]
- UV decrease of substrate at 259 nm (PPP2 [1]): PPP2 activity with PCA was ~ sevenfold higher than with GA

Molecule: O=C(O)c1ccc(O)c(O)c1 [protocatechuic acid]
- UV decrease of substrate at 250 nm (PPP2 [2]): PPP2 activity with PCA was ~ sevenfold higher than with GA

- stoichiometry N [3]: 3
Molecule: AGDC1 E88A mutant (enzyme)

- stoichiometry N [4]: 3
- stoichiometry N [5]: 3
Molecule: Pea Pathogenity Protein (PPP2) from Madurella mycetomatis (enzyme)

- stoichiometry N [6]: 3
- stoichiometry N [7]: 3
Molecule: gallic acid decarboxylase AGDC1 from Arxula adenivorans (enzyme)
